Assay results published in US20190233507A1 (CORNELL UNIVERSITY, published 2019).

Target: β-galactosidase (UniProt P00722 2-1024 = β-galactosidase, limits assumed)
Assay: ELISA, plate coated with 1 µg β-gal per well, anti-FLAG-HRP detection
From the text: FIGS. 1A-D illustrate ubiquibody expression and binding. FIG. 1A is a schematic depiction of pET28a constructs used to express ubiquibodies (“uAb”) in E. coli, which includes single chain Fv antibody fragment (“scFv”), GSGSG linker (“˜”), human C-terminus of Hsc70-interacting protein (“CHIP”) without the N-terminal TPR domain (“[…]”), a FLAG-tag (“F”) and a 6×His-tag (“H6”). FIG. 1B is a western blot of the soluble fractions isolated from BL21(DE3) E. coli cells expressing wild-type human CHIP, inactivated CHIPH260Q, CHIPΔTPR, scFv13R4, scFv13R4-uAb, scFv13-uAb and scFvD10-uAb. An equivalent amount of total protein was loaded in each lane and expression was assayed using anti-FLAG-HRP. FIG. 1C is a graph showing ELISA results where a plate was coated with 1 μg β-gal per well and incubated with 160 ng of purified protein per well. Samples were performed in triplicate and error bars represent the standard deviation of the mean. […]
Briefly, ELISAs were performed using a 96-well plate coated with antigen (β-gal, gpD or Hsp70) at a concentration of 10 μg/mL (1 μg of antigen per well) and incubated overnight at 4° C. […] The amount of bound anti-flag-HRP was determined by using SigmaFAST™ o-phenylenediamine dihydrochloride (OPD) tablets for detection of peroxidase activity at 492 nm.

β-galactosidase, sequence (P00722 2-1024 limits assumed): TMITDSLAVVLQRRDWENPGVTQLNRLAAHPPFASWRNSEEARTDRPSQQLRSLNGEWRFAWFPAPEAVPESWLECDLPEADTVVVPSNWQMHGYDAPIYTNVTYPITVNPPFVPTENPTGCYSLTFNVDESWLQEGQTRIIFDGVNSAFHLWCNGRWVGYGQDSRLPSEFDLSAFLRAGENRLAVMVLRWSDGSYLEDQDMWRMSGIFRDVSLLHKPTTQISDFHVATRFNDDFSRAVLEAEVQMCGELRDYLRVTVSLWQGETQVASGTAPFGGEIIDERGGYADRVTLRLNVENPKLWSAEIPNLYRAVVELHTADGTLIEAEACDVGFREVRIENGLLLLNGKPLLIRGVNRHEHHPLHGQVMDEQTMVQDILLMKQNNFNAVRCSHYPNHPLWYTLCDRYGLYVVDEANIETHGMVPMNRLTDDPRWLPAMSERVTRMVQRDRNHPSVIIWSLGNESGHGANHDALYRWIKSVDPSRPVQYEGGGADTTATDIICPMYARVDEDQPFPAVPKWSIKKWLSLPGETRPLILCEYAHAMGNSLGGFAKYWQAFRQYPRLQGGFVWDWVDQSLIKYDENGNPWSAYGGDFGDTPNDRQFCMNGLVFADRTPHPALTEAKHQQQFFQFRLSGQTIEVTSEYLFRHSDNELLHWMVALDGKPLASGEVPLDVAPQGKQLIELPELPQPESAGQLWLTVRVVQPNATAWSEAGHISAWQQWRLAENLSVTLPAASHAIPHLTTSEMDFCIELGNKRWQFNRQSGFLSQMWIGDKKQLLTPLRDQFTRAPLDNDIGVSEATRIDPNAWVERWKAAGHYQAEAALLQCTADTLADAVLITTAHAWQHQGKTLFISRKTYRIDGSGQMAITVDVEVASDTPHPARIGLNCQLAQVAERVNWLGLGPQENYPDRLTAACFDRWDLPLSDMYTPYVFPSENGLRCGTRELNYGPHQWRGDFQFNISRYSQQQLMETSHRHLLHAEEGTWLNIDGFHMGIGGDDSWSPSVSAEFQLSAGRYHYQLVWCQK

B1: CHIPΔTPR (Construct 3: hCHIPdTPR-FLAGtag-His6tag) (enzyme)
chain: MGRLNFGDDIPSALRIAKKKRWNSIEERRIHQESELHSYLSRLIAAERERELEECQRNHEGDEDDSHVRAQQACIEAKHDKYMADMDELFSQVDEKRKKRDIPDYLCGKISFELMREPCITPSGITYDRKDIEEHLQRVGHFDPVTRSPLTQEQLIPNLAMKEVIDAFISENGWVEDYVDGADYKDDDDKGHHHHHH
notes: Control protein, purified from E. coli
B1: no binding (tested: 160 ng of purified protein per well).
